We go through five molecules from PMC9482650, “Quantitative fragmentomics allow affinity mapping of interactomes” (Nature Communications, 2022).

Assay in all cases: holdup assay
Holding throughout (set-up): key: below the threshold = too weak to quantify, mostly under pKd 3.1 to 4

In assay [1] the target is T1, PCLO, Q9Y6V0.
T1 sequence (Q9Y6V0 4491-4600, limits assumed, looked up): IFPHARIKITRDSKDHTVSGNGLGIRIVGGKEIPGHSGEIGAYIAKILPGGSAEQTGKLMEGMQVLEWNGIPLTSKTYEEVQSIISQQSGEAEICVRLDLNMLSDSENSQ

Assay [2] deals with T2, DVL3, Q92997.
T2 sequence (Q92997 244-331, limits assumed, looked up): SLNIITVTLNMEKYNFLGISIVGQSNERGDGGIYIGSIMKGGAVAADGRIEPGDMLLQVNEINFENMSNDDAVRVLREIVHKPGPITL

For assay [3], the target named is IL16_4, Q14005.
Chain of IL16_4, Q14005 (Q14005 1229-1329): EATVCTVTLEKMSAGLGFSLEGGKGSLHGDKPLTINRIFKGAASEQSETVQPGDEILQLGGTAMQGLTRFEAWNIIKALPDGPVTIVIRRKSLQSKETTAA
The target of assay [4] is T3, GIPC1, O14908.
T3 sequence (O14908 128-223, limits assumed, looked up): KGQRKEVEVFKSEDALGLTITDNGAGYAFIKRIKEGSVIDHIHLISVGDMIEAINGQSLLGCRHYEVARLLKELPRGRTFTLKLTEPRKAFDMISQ
The conditions noted are these: plain residues with an end cap or a label only (N-terminal biotin on a linker: (peg)3).

Assay [5] concerns the target T4, INTU, Q9ULD6.
T4 sequence (Q9ULD6 180-273, limits assumed, looked up): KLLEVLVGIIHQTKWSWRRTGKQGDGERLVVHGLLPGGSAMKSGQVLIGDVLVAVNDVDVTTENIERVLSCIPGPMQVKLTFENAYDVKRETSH
The following applies: plain residues with an end cap or a label only (N-terminal biotin on a linker: (peg)3).

For assay [6], the target named is T5, SHANK2, Q9UPX8.
T5 sequence (Q9UPX8 621-730, limits assumed, looked up): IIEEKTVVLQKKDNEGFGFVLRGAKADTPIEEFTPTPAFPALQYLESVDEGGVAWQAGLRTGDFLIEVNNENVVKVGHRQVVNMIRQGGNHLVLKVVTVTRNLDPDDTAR
The conditions noted are these: plain residues with an end cap or a label only (N-terminal biotin on a linker: (peg)3).

For assay [7], the target named is RIMS2, Q9UQ26. The following applies: plain residues with an end cap or a label only (N-terminal biotin on a linker: (peg)3).
Chain of RIMS2, Q9UQ26 (Q9UQ26 637-758): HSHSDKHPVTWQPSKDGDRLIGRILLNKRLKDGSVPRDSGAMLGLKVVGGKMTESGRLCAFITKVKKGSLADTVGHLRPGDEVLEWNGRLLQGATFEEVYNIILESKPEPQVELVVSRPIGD
The target in assay [8] is T6, PDZRN3_2, Q9UPQ7.
T6 sequence (Q9UPQ7 414-513, limits assumed, looked up): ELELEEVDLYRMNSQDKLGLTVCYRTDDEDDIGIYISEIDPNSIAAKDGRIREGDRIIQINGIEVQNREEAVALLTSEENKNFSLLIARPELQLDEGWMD
The conditions noted are these: plain residues with an end cap or a label only (N-terminal biotin on a linker: (peg)3).

Assay [9] has as its target MAGI3_5, Q5TCQ9. The following applies: plain residues with an end cap or a label only (N-terminal biotin on a linker: (peg)3).
Assay [10] has as its target T7, TJP3_2, O95049.
T7 sequence (O95049 190-282, limits assumed, looked up): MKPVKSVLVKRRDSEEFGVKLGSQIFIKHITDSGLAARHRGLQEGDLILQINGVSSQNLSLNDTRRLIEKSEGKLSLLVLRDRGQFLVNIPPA
The following applies: plain residues with an end cap or a label only (N-terminal biotin on a linker: (peg)3).

Assay [11] concerns the target PARD3B_2, Q8TEW8. The conditions noted are these: plain residues with an end cap or a label only (N-terminal biotin on a linker: (peg)3).
Assay [12] has as its target T8, GRIP1_1, Q9Y3R0.
T8 sequence (Q9Y3R0 48-146, limits assumed, looked up): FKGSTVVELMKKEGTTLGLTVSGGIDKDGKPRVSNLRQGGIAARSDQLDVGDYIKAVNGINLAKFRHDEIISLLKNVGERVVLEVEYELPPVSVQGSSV
The following applies: plain residues with an end cap or a label only (N-terminal biotin on a linker: (peg)3).

For assay [13], the target named is PTPN13_2, Q12923. The following applies: plain residues with an end cap or a label only (N-terminal biotin on a linker: (peg)3).
Chain of PTPN13_2, Q12923 (Q12923 1363-1462): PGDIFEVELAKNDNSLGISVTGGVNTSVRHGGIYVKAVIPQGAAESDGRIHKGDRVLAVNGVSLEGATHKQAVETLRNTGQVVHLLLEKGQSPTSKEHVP
Assay [14] deals with T9, USH1C_1, Q9Y6N9.
T9 sequence (Q9Y6N9 82-179, limits assumed, looked up): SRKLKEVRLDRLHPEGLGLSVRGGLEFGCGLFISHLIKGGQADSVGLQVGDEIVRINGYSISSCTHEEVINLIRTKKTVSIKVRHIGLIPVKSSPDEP
The conditions noted are these: plain residues with an end cap or a label only (N-terminal biotin on a linker: (peg)3).

The target in assay [15] is GRIP2_2, Q9C0E4. The following applies: plain residues with an end cap or a label only (N-terminal biotin on a linker: (peg)3).
Chain of GRIP2_2, Q9C0E4 (Q9C0E4 137-245): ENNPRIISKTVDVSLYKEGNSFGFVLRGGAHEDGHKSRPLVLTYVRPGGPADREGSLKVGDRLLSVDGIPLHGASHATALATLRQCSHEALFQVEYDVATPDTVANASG
The target of assay [16] is T10, PDZD2_3, O15018.
T10 sequence (O15018 581-682, limits assumed, looked up): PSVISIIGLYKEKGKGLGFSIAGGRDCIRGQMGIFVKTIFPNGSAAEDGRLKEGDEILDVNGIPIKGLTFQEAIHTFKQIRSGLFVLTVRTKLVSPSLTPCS
The following applies: plain residues with an end cap or a label only (N-terminal biotin on a linker: (peg)3).

Assay [17] deals with T11, PDZD7_1, Q9H5P4.
T11 sequence (Q9H5P4 81-178, limits assumed, looked up): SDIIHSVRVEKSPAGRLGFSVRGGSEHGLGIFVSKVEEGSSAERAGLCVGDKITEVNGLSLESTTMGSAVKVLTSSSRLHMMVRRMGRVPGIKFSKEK
The conditions noted are these: plain residues with an end cap or a label only (N-terminal biotin on a linker: (peg)3).

The target in assay [18] is T12, LNX2_1, Q8N448.
T12 sequence (Q8N448 228-328, limits assumed, looked up): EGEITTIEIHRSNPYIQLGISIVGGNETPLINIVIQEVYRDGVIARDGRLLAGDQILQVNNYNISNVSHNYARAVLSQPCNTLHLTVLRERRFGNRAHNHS
The following applies: plain residues with an end cap or a label only (N-terminal biotin on a linker: (peg)3).

The target in assay [19] is T13, MAGI2_1, Q86UL8.
T13 sequence (Q86UL8 12-111, limits assumed, looked up): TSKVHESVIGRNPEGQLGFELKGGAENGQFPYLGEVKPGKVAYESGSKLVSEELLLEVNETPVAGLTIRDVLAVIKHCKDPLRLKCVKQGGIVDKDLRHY
The following applies: plain residues with an end cap or a label only (N-terminal biotin on a linker: (peg)3).

Assay [20] concerns the target T14, NHERF1_2, O14745.
T14 sequence (O14745 149-244, limits assumed, looked up): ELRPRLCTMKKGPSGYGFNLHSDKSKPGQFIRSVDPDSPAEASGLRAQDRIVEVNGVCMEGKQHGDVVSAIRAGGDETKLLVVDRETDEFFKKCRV
The conditions noted are these: plain residues with an end cap or a label only (N-terminal biotin on a linker: (peg)3).

Assay [21] addresses T15, SHROOM4, Q9ULL8.
T15 sequence (Q9ULL8 5-102, limits assumed, looked up): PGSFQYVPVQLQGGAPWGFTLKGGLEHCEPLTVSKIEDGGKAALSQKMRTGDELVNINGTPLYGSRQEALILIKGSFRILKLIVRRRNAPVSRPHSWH
The conditions noted are these: plain residues with an end cap or a label only (N-terminal biotin on a linker: (peg)3).

The mark [22] stands for this setting: plain residues with an end cap or a label only (N-terminal biotin on a linker: ado-ado).
Where [23] appears, read: plain residues with an end cap or a label only (N-terminal biotin on a linker: (peg)3).
Where [24] appears, read: modified: phospho on T at position -2 from the C-terminal residue.

Chain of MAGI3_5, Q5TCQ9 (Q5TCQ9 847-941): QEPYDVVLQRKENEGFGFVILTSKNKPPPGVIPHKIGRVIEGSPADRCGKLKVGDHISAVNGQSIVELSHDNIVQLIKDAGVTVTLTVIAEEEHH
Chain of PARD3B_2, Q8TEW8 (Q8TEW8 376-471): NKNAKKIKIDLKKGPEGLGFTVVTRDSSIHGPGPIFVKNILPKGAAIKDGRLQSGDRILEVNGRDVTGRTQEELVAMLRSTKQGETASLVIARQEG

As for LRSPRTPSEV [OR10G3, Q8NGC4], the pKd entry in assay [1] (setting [22]) was “below the threshold”; in assay [2] (setting [22]), “below the threshold”; in assay [3] (setting [22]), 3.53.

In the case of NLNSSEGVPDLLV [SARS-CoV-E, P59637], the negative logarithm of the Kd (pKd) entry in assay [4], in [5], in assay [6], in assay [7], in assay [8] and in assay [9] was “below the threshold” in each case. The pKd result in [1] (setting [23]), in assay [10], in assay [2] (setting [23]), in assay [11], in assay [12] and in assay [3] (setting [23]) was “below the threshold” each time. In addition, the pKd result in [13], in assay [14], in [15], in [16], in assay [17] and in [18] was “below the threshold” in each case. For the same molecule, the negative-log Kd (pKd) entry in assay [19] is “below the threshold”; in assay [20], 3.74; in assay [21], “below the threshold”.

For RRRESYSTTV [EVI5, O60447], the pKd result in [1] (setting [22]), in assay [2] (setting [22]) and in [3] (setting [22]) was “below the threshold” each time.

As to SKPTRRETEV [HPV35-E6_-2P, P27228], the negative-log Kd (pKd) result in assay [1] (setting [24]), in [2] (setting [24]) and in assay [3] (setting [24]) was “below the threshold” in each case.

In the case of LPAHHNATRL [SLC34A1, Q06495;Q06495-1], the pKd result in assay [1] (setting [22]), in [2] (setting [22]) and in assay [3] (setting [22]) was “below the threshold” in each case.
